Data taken from the supplement of paper PMC11502859.
Values joined by “and” are separate entries in the source; they are usually repeats but may differ in a detail not shown here. Equal values may be shown once.

Each substance was assayed on HEK293T (assay: median enrichment of reporter reads in eGFP-reduced (low/intermediate) vs eGFP-high sorted cells (eGFP-extension fusion abundance) (ratio); higher = stronger loss of eGFP-fusion protein abundance (more destabilising extension)).
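Further: lentiviral eGFP-IRES-mCherry reporter pool sorted by FACS 96 h post-transduction, gated on mCherry-high cells, Illumina read counts normalized per million, median across four biological replicates.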

Row | Substance | median enrichment
1 | YCPRAHRQLQGALVANKQHL [RAB3C] | 2.13
2 | YCRREVSSLCLVCNSSWA [REG3A] | 7.13
3 | YDFQKTLILFLKL [PRDM1] | 8.51
4 | YDGAVTERTQESGTPPGIPSTFSCSWERPGGGAHWEGQDSVPALILPCPDVSCFAQRSFLSTPLIPRLVPREGWRPGHGPSRR [ASIC4] | 4.69
5 | YDGGQIKVLAFRCL [KCNMB3] | 9.29
6 | YDGHISFIGE [CFLAR] | 0.753
7 | YDGR [ZNF772] | 0.299
8 | YDHPTTRSAANSGLSLGVAPSLLLPLN [TRIB3] | 6.29
9 | YDHSGQDHSGHGHGHSHGGHGHSH [S100A9] | 0.275
10 | YDLEFC [PQLC2L] | 0.999
11 | YDLIQHRNDSH [IFNA6] | 0.697
12 | YDPCGRPLPPSHRLPHHSCLVLGRPHCALALGLPSLLQQGTGALARVTD [GTF3C1] | 6.87
13 | YDSISP [CBLN4] | 0.384
14 | YDSLVL [ALDH5A1] | 0.258
15 | YDSNPDPGLIFQSPPSCGTASVC [NFKBID] | 4.34
16 | YDSPGLKLGSRPAR [PTGDS] | 3.48
17 | YDTP [CD1A] | 0.395
18 | YDVMLAGSPPLDPDSYG [SH3GL2] | 0.593
19 | YDVQRRLNKCTAE [VPS33A] | 0.744
20 | YEAPS [OR1L8] | 1.07
21 | YEAVMRMVL [SETDB1] | 4.84 and 3.68
22 | YEDPPEE [IGF1] | 2.17
23 | YEERDYLHIKNI [SLC35B1] | 0.713

Row | Substance | median enrichment
24 | YEEVSATSPPEPAVIFTAPAHLSPTCSFDPWTWYTSMWSCWARGVLCAVNSVGSCSGVGARFLPPWAEGPFPLVLCPHPPPFS [KLHDC3] | 5.82
25 | YEGPSRRATQATVPVPAFPTPAVAPPHPLPLFVPFDERLFTGVGWRDGLEGAQSIRLQGPSWEK | 2.44
26 | YEHLDQVEKGTLSLVCGKQHLQEI [XKR6] | 0.3
27 | YEHLVKTRPSGPTMSAPSRGRDMACHSS [ITGB2] | 0.9
28 | YEISLPGWEERKWGCPGETRNLPSPGWGQGLC [HOXB13] | 3.71
29 | YEKCVVCGADSGHHVDSLALPQATSPGTIFLP [BTD] | 2.26
30 | YEKHFGILSIMILCYRHRECCIQ [FASLG] | 3.75
31 | YELEQLGNKLSTSRHLLSFAMCLMP [OR51A7] | 3.52
32 | YELNKNKIQV [CXorf66] | 0.339
33 | YELWGAHTPQSS [IL17A] | 1.09
34 | YEPEYSR [GBP4] | 0.833
35 | YEPYSFKPYVFLCAFFPYPSSLALPFLNTAAL [UBQLN3] | 7.8
36 | YEQCIT [DCTN6] | 2.67
37 | YEQGGLGWPSPGGCGWGQETQPTTAPVSSPHKAAWVCTVCKLQDTLPGDPRGHSYTLFTRKIQRSQ [C2orf50] | 9.09
38 | YEYA [BOD1L2] | 0.662
39 | YFFHKIC [CCDC102B] | 10.6
40 | YFFI [ATP2B1] | 9.67
41 | YFFLELKHPRMPLHVFHSPHLQTSLLFLTRPESKLPSLGNSGEGVSCTTYHTPSHPVSDFGMDSGKLGPSLNRVMYLNVCYFQ [HSPA1L] | 10.9
42 | YFLSVILP [GLB1L3] | 8.25
43 | YFMSFSISAADLC [DNAJC6] | 25.5
44 | YFNLCNLTNFHDK [NUP107] | 9.37
45 | YFSPFFSPEMKTTSPLSLWKQSSVLHTTRC [ARL1] | 11.4
46 | YFTIKVKQRKLYAGHICMRIQLFSGCSTTK [TMPRSS11A] | 9.64

Row | Substance | median enrichment
47 | YFVLRTDFLPIPFLNIQRLYWPVSFYFFPPDKYFRS [STMN1] | 15.2
48 | YGAKRCLSEVGHFLKIQIFISLFRHGCLQVFHCLLLLEI [TMEM246] | 19.9
49 | YGAPTFDFYLSSSWIF [HMGA2] | 9.36
50 | YGDFPVQ [GPALPP1] | 0.42
51 | YGDNSPVSKPGCQIQ [KIR3DL2] | 3.37
52 | YGEKIRNGCCT [WDR64] | 0.76
53 | YGF [ITSN2] | 0.445
54 | YGFHKHP [SELP] | 1.36
55 | YGFKTFLLHSTNLTSF [SNED1] | 33.4
56 | YGFLGFPSWACLLKA [CSF3R] | 5.35
57 | YGFSPFGDHLSVSPTHYPICPPPQLGPRGPTLHFWGVTDFVHGFKVYFYGLVIAEFLFWGEGKGASPLLLALRPRRLLCAANC [TSPYL2] | 5.92
58 | YGFVVQD [EPM2AIP1] | 0.381
59 | YGGPVGEPGDSRV [CHRND] | 0.405
60 | YGIRLSCFKNVRESHILLMANCYINGNT [CBWD1] | 1.39
61 | YGLAKAPIEALCQ [PITHD1] | 1.66
62 | YGLQKNWPWGTKAFFSGLLPRP [KANK4] | 43.3
63 | YGPGTGGAHPATEHVRVLVLFRSPLSRCNFCSSSPTPAPSFMLLFRTQPPCPVLVVSR [STMN3] | 7.57
64 | YGPVGPAAVLHPTPLTPASCCK [WDR13] | 6.81
65 | YGRDWHRLAFQHLLSPTLHSLLPCLSNKPNAACEAFFIFLFTLFLMLPTLPFRFFC [RSU1] | 10.2
66 | YGREARAAPAFLLQIWAAVARAVSPVAEPSGRCGNRRSSVAPVS [CPTP] | 7
67 | YGRFY [OR5L1] | 1.25
68 | YGRIMACLSPFLLQIKFSTHSFLLQIKFSTHSFFNTVL [OR2AG2] | 49.9
69 | YGRWEVSSLSLACSSSWT [REG3G] | 6.24

Row | Substance | median enrichment
70 | YGSAKSLWDWKSGPGLPDRQPEDLPSTMHHGRGRSMKN [SLC39A14] | 0.591
71 | YGSRRILTHRKGAHGTQVKEVLLARYGGSRL [SMYD4] | 5.15
72 | YGTDGRRGPGTPGMGGPNP [GATA2] | 1.68
73 | YGTKPRRIPPQ [CA10] | 0.595
74 | YGVAQGAPGRGPGPRTL [TMEM38A] | 0.588
75 | YGWGRVAASFVPTGGSHNSFDL [ELP5] | 5.96
76 | YGWWQPGFWPRAPPPD [PHC2] | 2.07
77 | YHAPRLEGRNSRLQNRHEMVWPCDYTL [TRMT44] | 1.98
78 | YHCESITFSLSCSWTFCTENPGI [CREBBP] | 33.7
79 | YHH [FAM229B] | 0.611
80 | YHPGL [GORASP1] | 0.424
81 | YHPHSSSSPPNRLGSRGLLCKPTGQLWLRAHLLQRVPQPLLNLDFCPNPLPVTRSISLSLLSNGAWSTEASEAIALLAEVKRT [SLC18A3] | 4.57
82 | YHPSG [FAM183A] | 0.527
83 | YHQNLCQNTKECA [TLL1] | 0.773
84 | YHRPVPGATWGPCGGKPFPPPRGDAQPPSGPPFGHHQVPKVPQEASTLHARPASISLSFPVWPSFEGHVRWRSQARQTLTRGL [PLPP7] | 8.18
85 | YIAD [FUCA2] | 0.607
86 | YICLASPPSVFSTQRRREPAVPCRREEGLLDPRLSPSALRTPCPDSLLMVGPLCSSLPVGSLSSLTWIRFGFSTSLPQRKDYS [KRT13] | 6.15
87 | YIFYSHSVVQSSALGIYLCSQRSNSHLLYCLCLKEFESFLIFIIHLRTRDPCLAVWSKADYAAWRQDSDRASERAKSCQKETE [GABRA1] | 10.4
88 | YIIHCIFYFYHILHIQQNLYVVIGII [ELMOD2] | 7.8
89 | YILDLFYFLWSKFWCD [MIER1] | 7.56
90 | YILKTQPSSKRHAPPHSPGPGRGGCSS [ADORA1] | 2.57
91 | YILLADHYCGLKDDHLV [WFDC9] | 7.3
92 | YILLKVF [LY75] | 4.38
